Molecular target: T1, [2Fe-2S]-IscR wild type (Escherichia coli, UniProt P0AGK8 1-162)
T1 sequence: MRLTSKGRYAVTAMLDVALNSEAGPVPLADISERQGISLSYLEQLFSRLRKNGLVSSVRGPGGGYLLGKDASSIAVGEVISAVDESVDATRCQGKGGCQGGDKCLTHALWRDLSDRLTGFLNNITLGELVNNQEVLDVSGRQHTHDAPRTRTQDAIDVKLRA
Assay: fluorescence anisotropy

B1: PiscR site B 30-mer (dsDNA)
DNA 1: AAATAGTTGACCAATTTACTCGGGAATGTC
DNA 2: GACATTCCCGAGTAAATTGGTCAACTATTT
Kd: 112 ± 2 nM

— article PMC4108476
